The source of these data is US20190119318A1.

In experiment [1] the target is human polyclonal IgG (Gammanorm) (human). Briefly: SPR; after 96-100 CIP cycles 0.5 M NaOH. (Surface plasmon resonance follows binding to a sensor surface in real time, without labels.)
The target is the same in experiment [2]. The experiment in a line: SPR; vs reference Zvar1; 0.5 M NaOH cycles.
Experiment [3] shares this target. The experiment in a line: SPR; vs reference Zvar4; 1 M NaOH.
The target is the same in experiment [4]. The experiment in a line: SPR; after 100 CIP cycles 1 M NaOH.
Experiment [5] shares this target. The experiment in a line: SPR; vs reference Zvar4; 0.5 M NaOH.
The target is the same in experiment [6]. The experiment in a line: SPR; after 100 CIP cycles 0.5 M NaOH.
Experiment [7] shares this target. Briefly: SPR; after 200 CIP cycles 0.5 M NaOH.
Experiment [8] shares this target. Briefly: SPR; after 300 CIP cycles 0.5 M NaOH.
Experiment [9] has the same target. Briefly: SPR; vs reference Zvar2; 0.5 M NaOH.

Regarding “Zvar(Q9A,N11K,H18K,D37E,A42R,N43A,L44I,K50R)1 (designed binder)”, the capacity after 96-100 cycles in [1] came to 67%. The substance further displayed a capacity relative to reference in experiment [2] of 1.49.

Regarding “Zvar(Q9A,N11E,N28A,N43A)4 (designed binder)”, the results for the capacity relative to ref. 100 cycles in experiment [3] and in [5] were 2.04 and 1.19, respectively. Besides, the remaining capacity 100 cycles in experiment [4] came to 55%; in experiment [6] it was 80%. In experiment [5], this substance returned a capacity relative to ref. 200 cycles of 1.72. Also, the capacity relative to ref. 300 cycles in experiment [5] is 2.62. For the same substance, in experiment [7], the remaining capacity 200 cycles was determined as 62%. The substance also showed a remaining capacity 300 cycles in experiment [8] of 42%.

For the substance “Zvar(Q9A,N11E,Q40V,A42K,N43A,L44I,D53W)1 (designed binder)”, the capacity after 96-100 cycles in experiment [1] was 62%. The substance also yielded a capacity relative to reference in experiment [2] of 1.35.

Regarding “Zvar(Q9A,N11E,Q40V,A42K,N43A,L44I,D53F)1 (designed binder)”, the capacity after 96-100 cycles in experiment [1] was found to be 58%. This substance also registered a capacity relative to reference in [2] of 1.26.

In turn, “Zvar(Q9A,N11E,A29D,Q40V,A42K,N43A,L44I)1 (designed binder)” came in with a capacity after 96-100 cycles in experiment [1] of 56%. This substance also showed a capacity relative to reference in experiment [2] of 1.19.

In [1], “parental B domain of Staphylococcus Protein A (from UniProt A0A0H3K686 212-269)” had a reference capacity after 96-100 cycles of 35%.

As for “Zvar(Q9A,N11E,Q40V,A42K,N43A,L44I)2 with YEDG inserted in linker between K58 and V1 (designed binder)”, the capacity relative to ref. 100 cycles in experiment [9] is 1.31. Moreover, in experiment [6], the remaining capacity 100 cycles amounted to 72%.

Take “Zvar(Q9A,N11E,Q40V,A42K,N43A,L44I)2 with A56, P57 and K58 in linker deleted (designed binder)”: the capacity relative to ref. 100 cycles in experiment [9] came to 1.26. The remaining capacity 100 cycles in experiment [6] was found to be 68%.

On to “Zvar(Q9A,N11E,Q40V,A42K,N43A,L44I,D53R)1 (designed binder)”, for which the capacity after 96-100 cycles in [1] amounted to 60%. The same substance gave a capacity relative to reference in experiment [2] of 1.3.

As to “Zvar(N11K,H18K,D37E,A42R,N43A,L44I)1 (designed binder)”, the capacity after 96-100 cycles in [1] was 59%. In experiment [2], this substance came in with a capacity relative to reference of 1.31.

In turn, “Zvar(Q9A,N11E,A29E,Q40V,A42K,N43A,L44I)1 (designed binder)” came in with a capacity after 96-100 cycles in [1] of 57%. In [2], this substance displayed a capacity relative to reference of 1.21.

In the case of “Zvar(Q9A,N11E,Q40V,A42K,N43A,L44I,D53Y)1 (designed binder)”, the capacity after 96-100 cycles in experiment [1] was determined as 59%. Moreover, the capacity relative to reference in experiment [2] was 1.28.

In experiment [1], “Zvar(Q9A,N11E,A29Y,Q40V,A42K,N43A,L44I)1 (designed binder)” came in with a capacity after 96-100 cycles of 61%. The substance further came in with a capacity relative to reference in experiment [2] of 1.27.

For the substance “Zvar(Q9A,N11E,N28A,Q40V,A42K,N43A,L44I)4 (designed binder)”, in experiment [5], the capacity relative to ref. 100 cycles was 1.24. In experiment [6], the remaining capacity 100 cycles is 84%.

For “Zvar(Q9A,N11E,Q40V,A42K,N43A,L44I)2 with D2, A3 and K4 in linker deleted (designed binder)”, in experiment [9], the capacity relative to ref. 100 cycles amounted to 1.27. In addition, the remaining capacity 100 cycles in experiment [6] worked out at 70%.

“Zvar(Q9A,N11E,Q40V,A42K,N43A,L44I,D53K)1 (designed binder)” returned a capacity after 96-100 cycles in [1] of 65%. Besides, the capacity relative to reference in experiment [2] was 1.41.

“Zvar(Q9A,N11E,A29T,Q40V,A42K,N43A,L44I)1 (designed binder)”: the capacity after 96-100 cycles in [1] was determined as 60%. For the same substance, the capacity relative to reference in experiment [2] worked out at 1.28.

“Zvar(Q9A,N11E,D37E,Q40V,A42K,N43A,L44I)4 (designed binder)” yielded a capacity relative to ref. 100 cycles in experiment [5] of 1.13. Also, the remaining capacity 100 cycles in experiment [6] is 81%.

Take “Zvar(N11K,H18K,S33K,D37E,A42R,N43A,L44I,K50R,L51Y)1 (designed binder)”: the capacity after 96-100 cycles in experiment [1] stood at 67%. In experiment [2], this substance showed a capacity relative to reference of 1.46.

Regarding “Zvar(Q9A,N11E,A29W,Q40V,A42K,N43A,L44I)1 (designed binder)”, in experiment [1], the capacity after 96-100 cycles turned out to be 60%. For the same substance, in [2], the capacity relative to reference was 1.3.

In experiment [1], “Zvar(Q9A,N11E,A29V,Q40V,A42K,N43A,L44I)1 (designed binder)” showed a capacity after 96-100 cycles of 62%. The same substance registered a capacity relative to reference in experiment [2] of 1.32.

The substance “Zvar(Q9A,N11E,A29F,Q40V,A42K,N43A,L44I)1 (designed binder)” had a capacity after 96-100 cycles in [1] of 62%. The capacity relative to reference in [2] is 1.35.

“Zvar(Q9A,N11E,Q40V,A42K,N43A,L44I)2 with P57, K58, V1, D2 and A3 in linker deleted (designed binder)” came in with a capacity relative to ref. 100 cycles in experiment [9] of 1.35. The remaining capacity 100 cycles in [6] was found to be 74%.

“Zvar(Q9A,N11E,Q40del,A42K,N43A,L44I)1 (designed binder)” displayed a capacity after 96-100 cycles in [1] of 59%. The capacity relative to reference in experiment [2] amounted to 1.28.

In turn, “Zvar(Q9A,N11E,D37E,Q40V,A42R,N43A,L44I)4 (designed binder)” came in with a capacity relative to ref. 100 cycles in experiment [5] of 1.17. Further, the remaining capacity 100 cycles in experiment [6] came out at 84%.

In experiment [1], “Zvar(Q9A,N11E,Q40V,A42del,N43A,L44I)1 (designed binder)” returned a capacity after 96-100 cycles of 57%. For the same substance, the capacity relative to reference in [2] worked out at 1.24.

“Zvar(Q9A,N11E,Q40V,A42K,N43A,L44I)2 with K4, F5, D6, K7 and E8 in linker deleted (designed binder)” showed a capacity relative to ref. 100 cycles in [9] of 1.3. In experiment [6], this substance returned a remaining capacity 100 cycles of 70%.

“Zvar(Q9A,N11E,Q40V,A42K,N43A,L44I)2 with V1, D2 and A3 in linker deleted (designed binder)” returned a capacity relative to ref. 100 cycles in experiment [9] of 1.39. The substance further registered a remaining capacity 100 cycles in [6] of 75%.

In the case of “Zvar(Q9A,N11E,Q40V,A42K,N43del,L44I)1 (designed binder)”, the capacity after 96-100 cycles in experiment [1] was determined as 55%. Moreover, the capacity relative to reference in experiment [2] is 1.2.

Take “Zvar(Q9A,N11E,A29K,Q40V,A42K,N43A,L44I)1 (designed binder)”: the capacity after 96-100 cycles in experiment [1] worked out at 59%. In experiment [2], the capacity relative to reference came to 1.28.

Turning to “Zvar(Q9A,N11E,A29N,Q40V,A42K,N43A,L44I)1 (designed binder)”, in experiment [1], the capacity after 96-100 cycles came to 61%. This substance also came in with a capacity relative to reference in [2] of 1.3.

For “Zvar(Q9A,N11K,H18K,S33K,D37E,A42R,N43A,L44I,K50R,L51Y)1 (designed binder)”, in experiment [1], the capacity after 96-100 cycles turned out to be 59%. The substance further yielded a capacity relative to reference in experiment [2] of 1.28.

In experiment [9], “Zvar(Q9A,N11E,Q40V,A42K,N43A,L44I)2 with V1, D2, A3, K4, F5, D6, K7 and E8 in linker deleted (designed binder)” yielded a capacity relative to ref. 100 cycles of 1.13. In [6], this substance registered a remaining capacity 100 cycles of 62%.

As to “Zvar(Q9A,N11E,A29H,Q40V,A42K,N43A,L44I)1 (designed binder)”, the capacity after 96-100 cycles in experiment [1] came to 57%. Also, in [2], the capacity relative to reference was determined as 1.21.

Substance “Zvar(Q9A,N11E,A29L,Q40V,A42K,N43A,L44I)1 (designed binder)” had a capacity after 96-100 cycles in experiment [1] of 61%. In addition, in experiment [2], the capacity relative to reference turned out to be 1.33.

Take “Zvar(Q9A,N11E,A29S,Q40V,A42K,N43A,L44I)1 (designed binder)”: the capacity after 96-100 cycles in [1] stood at 66%. This substance showed a capacity relative to reference in experiment [2] of 1.38.

In turn, “parental C domain of Staphylococcus Protein A (from UniProt A0A0H3K686 270-327)” came in with a reference capacity after 96-100 cycles in experiment [1] of 49%.

“Zvar(Q9A,N11E,A29R,Q40V,A42K,N43A,L44I)1 (designed binder)”: the capacity after 96-100 cycles in experiment [1] was 58%. In experiment [2], this substance displayed a capacity relative to reference of 1.26.

“Zvar(Q9A,N11E,A29Q,Q40V,A42K,N43A,L44I)1 (designed binder)”: the capacity after 96-100 cycles in [1] is 60%. In [2], this substance registered a capacity relative to reference of 1.28.

On to Zvar(N11E,Q32E,K50R)1 (designed binder), for which, in [1], the capacity after 96-100 cycles turned out to be 53%. Moreover, the capacity relative to reference in experiment [2] worked out at 1.04.

Regarding “Zvar(Q9A,N11E,N28A,Q40V,A42K,N43A,L44I)1 (designed binder)”, in experiment [1], the capacity after 96-100 cycles amounted to 65%. Moreover, the capacity relative to reference in [2] was 1.35.

In experiment [5], Zvar(Q9A,N11E,N43A)4 (designed binder) came in with a capacity relative to ref. 100 cycles of 1.21, a capacity relative to ref. 200 cycles of 1.72 and a capacity relative to ref. 300 cycles of 2.56. The remaining capacity 100 cycles in experiment [6] stood at 81%. Besides, the remaining capacity 200 cycles in experiment [7] came to 62%. Also, in experiment [8], the remaining capacity 300 cycles came out at 41%.

In experiment [1], “Zvar(Q9A,N11K,H18K,D37E,A42R,N43A,L44I)1 (designed binder)” displayed a capacity after 96-100 cycles of 63%. The capacity relative to reference in [2] stood at 1.4.

As for “Zvar(Q9A,N11E,A29I,Q40V,A42K,N43A,L44I)1 (designed binder)”, the capacity after 96-100 cycles in experiment [1] was 58%. The substance further showed a capacity relative to reference in [2] of 1.23.

In [1], “Zvar(Q9del,N11E,Q40V,A42K,N43A,L44I)1 (designed binder)” gave a capacity after 96-100 cycles of 60%. The substance further gave a capacity relative to reference in experiment [2] of 1.3.

In experiment [1], “Zvar(Q9A,N11E,A29M,Q40V,A42K,N43A,L44I)1 (designed binder)” registered a capacity after 96-100 cycles of 62%. For the same substance, the capacity relative to reference in experiment [2] was 1.32.

Substance “Zvar(Q9A,N11E,Q40V,A42K,N43A,L44I)2 with K58, V1 and D2 in linker deleted (designed binder)” came in with a capacity relative to ref. 100 cycles in experiment [9] of 1.38. This substance also yielded a remaining capacity 100 cycles in experiment [6] of 76%.
